Assay results reported in publication PMC9482650, “Quantitative fragmentomics allow affinity mapping of interactomes” (Nature Communications, 2022).

T1: APBA2_1, Q99767
T1 sequence (Q99767 563-664, limits assumed, looked up): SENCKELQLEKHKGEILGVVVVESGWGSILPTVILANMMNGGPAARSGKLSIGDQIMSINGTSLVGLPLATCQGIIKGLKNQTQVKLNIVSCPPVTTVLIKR

T2: APBA1_2, Q02410
T2 sequence (Q02410 742-832, limits assumed, looked up): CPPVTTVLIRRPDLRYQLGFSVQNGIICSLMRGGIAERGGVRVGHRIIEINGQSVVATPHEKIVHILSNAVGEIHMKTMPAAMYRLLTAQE

T3: PTPN13_1, Q12923
T3 sequence (Q12923 1088-1188, limits assumed, looked up): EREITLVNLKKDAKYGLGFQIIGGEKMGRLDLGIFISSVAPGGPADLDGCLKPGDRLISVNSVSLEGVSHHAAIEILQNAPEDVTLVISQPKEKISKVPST

T4: PARD3B_1, Q8TEW8
T4 sequence (Q8TEW8 196-299, limits assumed, looked up): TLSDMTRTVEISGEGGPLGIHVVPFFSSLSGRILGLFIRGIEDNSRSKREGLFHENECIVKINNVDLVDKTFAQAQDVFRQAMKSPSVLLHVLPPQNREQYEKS

T5: DLG3_3, Q92796
T5 sequence (Q92796 374-475, limits assumed, looked up): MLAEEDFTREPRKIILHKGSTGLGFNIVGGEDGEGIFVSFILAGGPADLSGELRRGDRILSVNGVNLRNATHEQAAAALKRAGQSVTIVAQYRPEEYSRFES

T6: TIAM2, Q8IVF5
T6 sequence (Q8IVF5 885-986, limits assumed, looked up): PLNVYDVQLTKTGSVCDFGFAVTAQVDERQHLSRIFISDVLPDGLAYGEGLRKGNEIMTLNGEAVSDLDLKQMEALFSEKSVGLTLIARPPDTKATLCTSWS

T7: MPDZ_10, O75970
T7 sequence (O75970 1624-1722, limits assumed, looked up): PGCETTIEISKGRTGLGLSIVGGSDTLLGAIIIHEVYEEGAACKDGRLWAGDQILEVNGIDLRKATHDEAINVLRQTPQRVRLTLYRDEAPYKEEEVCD

T8: NHERF3_1, Q5T2W1
T8 sequence (Q5T2W1 4-100, limits assumed, looked up): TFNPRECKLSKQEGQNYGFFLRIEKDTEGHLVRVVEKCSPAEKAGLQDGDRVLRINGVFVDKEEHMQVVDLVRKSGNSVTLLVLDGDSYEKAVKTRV

T9: SNTG2, Q9NY99
T9 sequence (Q9NY99 68-166, limits assumed, looked up): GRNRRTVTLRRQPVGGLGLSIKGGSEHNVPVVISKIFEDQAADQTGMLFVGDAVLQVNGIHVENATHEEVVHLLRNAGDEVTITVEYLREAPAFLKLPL

T10: PDZRN3_1, Q9UPQ7
T10 sequence (Q9UPQ7 244-349, limits assumed, looked up): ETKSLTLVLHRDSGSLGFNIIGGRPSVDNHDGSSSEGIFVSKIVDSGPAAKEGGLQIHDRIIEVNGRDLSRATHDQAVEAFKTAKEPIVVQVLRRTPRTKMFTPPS

B1: PRKD2, Q9BZL6 (peptide)
chain: QGLAERISVL
B2: NLGN2, Q8NFZ4 (peptide)
chain: LPHPHSTTRV
B3: CCDC134, Q9H6E4 (peptide)
chain: PRISRSQSEL

Assays:
Experiment in all cases: holdup assay
Set-up in all cases: key: below the threshold = too weak to quantify, mostly under pKd 3.1 to 4
Conditions in all cases: plain residues with an end cap or a label only (N-terminal biotin on a linker: ado-ado)
[1] = biological target: HTRA2, O43464
Chain of HTRA2, O43464 (O43464 355-458): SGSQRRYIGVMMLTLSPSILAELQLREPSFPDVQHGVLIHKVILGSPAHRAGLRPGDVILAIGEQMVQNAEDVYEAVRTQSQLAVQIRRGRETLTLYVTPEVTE

[2] = biological target: LAP2, Q96RT1
Chain of LAP2, Q96RT1 (Q96RT1 other isoform, or with tags, fused parts or gaps): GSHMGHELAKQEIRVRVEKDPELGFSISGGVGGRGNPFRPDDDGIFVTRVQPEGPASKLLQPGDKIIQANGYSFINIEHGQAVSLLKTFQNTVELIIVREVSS

[3] = biological target: T1, APBA2_1, Q99767
[4] = biological target: TJP1_3, Q07157
Chain of TJP1_3, Q07157 (Q07157 416-512): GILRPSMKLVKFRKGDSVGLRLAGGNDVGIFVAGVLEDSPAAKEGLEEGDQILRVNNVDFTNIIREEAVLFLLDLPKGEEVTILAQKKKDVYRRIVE

[5] = biological target: PARD3_3, Q8TEW0
Chain of PARD3_3, Q8TEW0 (Q8TEW0 582-685): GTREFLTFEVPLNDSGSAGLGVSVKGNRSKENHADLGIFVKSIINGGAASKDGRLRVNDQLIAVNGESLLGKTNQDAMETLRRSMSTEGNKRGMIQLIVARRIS

[6] = biological target: T2, APBA1_2, Q02410
[7] = biological target: GRIP2_3, Q9C0E4
Chain of GRIP2_3, Q9C0E4 (Q9C0E4 238-339): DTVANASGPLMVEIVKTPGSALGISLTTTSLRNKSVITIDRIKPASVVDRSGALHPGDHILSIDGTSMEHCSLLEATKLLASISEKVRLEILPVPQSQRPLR

[8] = biological target: GRIP2_6, Q9C0E4
Chain of GRIP2_6, Q9C0E4 (Q9C0E4 648-740): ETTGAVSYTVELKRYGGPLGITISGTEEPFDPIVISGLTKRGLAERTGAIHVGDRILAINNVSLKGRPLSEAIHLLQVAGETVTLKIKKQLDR

[9] = biological target: CASK, O14936
Chain of CASK, O14936 (O14936 487-570): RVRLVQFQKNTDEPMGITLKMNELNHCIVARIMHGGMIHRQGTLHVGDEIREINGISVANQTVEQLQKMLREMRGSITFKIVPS

[10] = biological target: T3, PTPN13_1, Q12923
[11] = biological target: FRMPD2_2, Q68DX3
Chain of FRMPD2_2, Q68DX3 (Q68DX3 944-1038): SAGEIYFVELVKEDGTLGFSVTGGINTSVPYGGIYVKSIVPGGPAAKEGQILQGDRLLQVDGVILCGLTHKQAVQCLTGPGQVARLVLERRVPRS

[12] = biological target: LNX1_1, Q8TBB1
Chain of LNX1_1, Q8TBB1 (Q8TBB1 261-371): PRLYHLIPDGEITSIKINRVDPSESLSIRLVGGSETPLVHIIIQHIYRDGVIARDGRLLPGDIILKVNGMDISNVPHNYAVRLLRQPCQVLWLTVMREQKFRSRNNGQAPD

[13] = biological target: T4, PARD3B_1, Q8TEW8
[14] = biological target: GRIP2_5, Q9C0E4
Chain of GRIP2_5, Q9C0E4 (Q9C0E4 544-642): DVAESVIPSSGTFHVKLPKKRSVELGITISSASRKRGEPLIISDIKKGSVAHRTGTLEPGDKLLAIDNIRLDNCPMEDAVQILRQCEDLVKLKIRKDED

[15] = biological target: T5, DLG3_3, Q92796
[16] = biological target: GRIP2_4, Q9C0E4
Chain of GRIP2_4, Q9C0E4 (Q9C0E4 446-548): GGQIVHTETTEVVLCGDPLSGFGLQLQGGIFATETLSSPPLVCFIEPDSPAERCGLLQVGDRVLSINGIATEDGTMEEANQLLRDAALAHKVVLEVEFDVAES

[17] = biological target: T6, TIAM2, Q8IVF5
[18] = biological target: T7, MPDZ_10, O75970
[19] = biological target: Inadl_2, Q8NI35
Chain of Inadl_2, Q8NI35 (Q8NI35 238-335): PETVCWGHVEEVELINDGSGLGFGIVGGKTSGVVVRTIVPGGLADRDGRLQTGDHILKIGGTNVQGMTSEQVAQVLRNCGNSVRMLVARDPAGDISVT

[20] = biological target: T8, NHERF3_1, Q5T2W1
[21] = biological target: MAGI1_1, Q96QZ7
Chain of MAGI1_1, Q96QZ7 (Q96QZ7 1-106): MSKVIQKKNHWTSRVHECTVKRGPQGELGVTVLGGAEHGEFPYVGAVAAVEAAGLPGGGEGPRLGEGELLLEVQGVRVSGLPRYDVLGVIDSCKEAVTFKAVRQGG

[22] = biological target: T9, SNTG2, Q9NY99
[23] = biological target: LNX1_2, Q8TBB1
Chain of LNX1_2, Q8TBB1 (Q8TBB1 371-470): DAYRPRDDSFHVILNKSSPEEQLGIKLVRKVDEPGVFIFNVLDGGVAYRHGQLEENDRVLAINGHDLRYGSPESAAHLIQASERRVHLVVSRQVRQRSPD

[24] = biological target: NHERF2_2, Q15599
Chain of NHERF2_2, Q15599 (Q15599 142-238): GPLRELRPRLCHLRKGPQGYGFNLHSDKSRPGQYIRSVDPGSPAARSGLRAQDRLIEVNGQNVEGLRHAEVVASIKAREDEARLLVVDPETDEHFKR

[25] = biological target: GORASP1, Q9BQQ3
Chain of GORASP1, Q9BQQ3 (Q9BQQ3 1-208): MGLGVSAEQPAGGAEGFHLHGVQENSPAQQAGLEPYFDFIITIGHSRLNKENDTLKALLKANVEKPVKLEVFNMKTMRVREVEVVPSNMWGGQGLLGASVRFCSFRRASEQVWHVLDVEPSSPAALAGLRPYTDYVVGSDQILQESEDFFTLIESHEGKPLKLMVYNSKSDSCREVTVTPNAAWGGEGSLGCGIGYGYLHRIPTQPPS

[26] = biological target: T10, PDZRN3_1, Q9UPQ7
[27] = biological target: FRMPD2_3, Q68DX3
Chain of FRMPD2_3, Q68DX3 (Q68DX3 1073-1166): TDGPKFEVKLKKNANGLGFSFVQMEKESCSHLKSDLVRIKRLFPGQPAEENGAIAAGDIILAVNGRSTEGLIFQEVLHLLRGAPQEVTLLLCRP

Row | Binder | pKd [1] | pKd [2] | pKd [3] | pKd [4] | pKd [5] | pKd [6] | pKd [7] | pKd [8] | pKd [9] | pKd [10] | pKd [11] | pKd [12] | pKd [13] | pKd [14] | pKd [15] | pKd [16] | pKd [17] | pKd [18] | pKd [19] | pKd [20] | further results
1 | B1 | below the threshold | below the threshold | below the threshold | below the threshold | 3.68 | 4.05 | below the threshold | below the threshold | below the threshold | below the threshold | below the threshold | 3.86 | 4.47 | below the threshold | below the threshold | below the threshold | below the threshold | 3.76 | below the threshold | 4.28 | pKd [21]: below the threshold; pKd [22]: 3.66; pKd [23]: below the threshold; pKd [24]: 4.5; pKd [25]: 4.08; pKd [26]: 3.84; pKd [27]: below the threshold
2 | B2 | below the threshold | below the threshold | below the threshold | below the threshold | below the threshold | below the threshold | 3.52 | below the threshold | below the threshold | below the threshold | 3.59 | 3.64 | below the threshold | below the threshold | 3.86 | below the threshold | below the threshold | 3.62 | below the threshold | 3.9 | pKd [21]: below the threshold; pKd [22]: 4.16; pKd [23]: below the threshold; pKd [24]: 3.75; pKd [25]: 3.58; pKd [26]: below the threshold; pKd [27]: below the threshold
3 | B3 | below the threshold | below the threshold | below the threshold | below the threshold | below the threshold | below the threshold | below the threshold | below the threshold | below the threshold | below the threshold | below the threshold | 3.67 | below the threshold | below the threshold | below the threshold | below the threshold | 3.86 | below the threshold | below the threshold | 4.42 | pKd [21]: below the threshold; pKd [22]: below the threshold; pKd [23]: below the threshold; pKd [24]: below the threshold; pKd [25]: below the threshold; pKd [26]: 3.65; pKd [27]: below the threshold
